What is called Km is the concentration of substrate that gives half-maximal velocity. As usually defined, the kcat is the maximal rate divided by the concentration of active sites. As a reminder, the kcat/Km is the second-order rate constant that governs catalysis at low substrate concentration.

The test system of series [1] is NC(=O)c1ncn([C@@H]2O[C@H](COP(=O)(O)O)[C@@H](O)[C@H]2O)c1N=CN[C@@H]1O[C@H](COP(=O)(O)O)[C@@H](O)[C@H]1O. In words: purified protein.
Series [2] relates to O=C(O)c1ccccc1N[C@@H]1O[C@H](COP(=O)(O)O)[C@@H](O)[C@H]1O. In words: purified protein.
Substrate in series [3]: NC(=O)c1ncn([C@@H]2O[C@H](COP(=O)(O)O)[C@@H](O)[C@H]2O)c1N=CN[C@@H]1O[C@H](COP(=O)(O)O)[C@@H](O)[C@H]1O
In words: ProFAR isomerase steady-state kinetics. The series is classed as biochemical, Streptomyces sviceus.

Substrate in series [4]: O=C(O)c1ccccc1N[C@@H]1O[C@H](COP(=O)(O)O)[C@@H](O)[C@H]1O
In words: PRA isomerase steady-state kinetics. The series is classed as biochemical, Streptomyces sviceus.

Substrate in series [5]: O=C(O)c1ccccc1N[C@@H]1O[C@H](COP(=O)(O)O)[C@@H](O)[C@H]1O
Nature of the series: PRA isomerase steady-state kinetics. The series is classed as biochemical, Streptomyces ipomoeae.

Substrate in series [6]: O=C(O)c1ccccc1N[C@@H]1O[C@H](COP(=O)(O)O)[C@@H](O)[C@H]1O
In words: PRA isomerase steady-state kinetics. The series is classed as biochemical, Mycolicibacterium smegmatis. Conditions: pH 7.5.

Substrate in series [7]: NC(=O)c1ncn([C@@H]2O[C@H](COP(=O)(O)O)[C@@H](O)[C@H]2O)c1N=CN[C@@H]1O[C@H](COP(=O)(O)O)[C@@H](O)[C@H]1O
In words: ProFAR isomerase steady-state kinetics. Conditions: pH 7.5. It counts as biochemical, Mycolicibacterium smegmatis.

Substrate in series [8]: O=C(O)c1ccccc1N[C@@H]1O[C@H](COP(=O)(O)O)[C@@H](O)[C@H]1O
In words: PRA isomerase steady-state kinetics. The series is classed as biochemical, Jonesia denitrificans.

Substrate in series [9]: NC(=O)c1ncn([C@@H]2O[C@H](COP(=O)(O)O)[C@@H](O)[C@H]2O)c1N=CN[C@@H]1O[C@H](COP(=O)(O)O)[C@@H](O)[C@H]1O
In words: ProFAR isomerase steady-state kinetics. It counts as biochemical, Streptomyces sp. C.

Substrate in series [10]: O=C(O)c1ccccc1N[C@@H]1O[C@H](COP(=O)(O)O)[C@@H](O)[C@H]1O
Nature of the series: PRA isomerase steady-state kinetics. The series is classed as biochemical, Streptomyces sp. C.

Substrate in series [11]: NC(=O)c1ncn([C@@H]2O[C@H](COP(=O)(O)O)[C@@H](O)[C@H]2O)c1N=CN[C@@H]1O[C@H](COP(=O)(O)O)[C@@H](O)[C@H]1O
Nature of the series: ProFAR isomerase steady-state kinetics. The series is classed as biochemical, Streptomyces ipomoeae.

Substrate in series [12]: O=C(O)c1ccccc1N[C@@H]1O[C@H](COP(=O)(O)O)[C@@H](O)[C@H]1O
In words: PRA isomerase steady-state kinetics. It counts as biochemical, Streptomyces globisporus.

Substrate in series [13]: NC(=O)c1ncn([C@@H]2O[C@H](COP(=O)(O)O)[C@@H](O)[C@H]2O)c1N=CN[C@@H]1O[C@H](COP(=O)(O)O)[C@@H](O)[C@H]1O
Nature of the series: ProFAR isomerase steady-state kinetics. It counts as biochemical, Streptomyces globisporus.

Take PriB_SMg1 (Streptomyces sp.): in series [1], the Km came to 13.2 ± 3.4 µM, the turnover number (kcat) stood at 0.92 ± 0.19 s⁻¹ and the specificity constant (kcat/Km) worked out at 69000 M⁻¹ s⁻¹. Moreover, in series [2], the Km was 129.6 ± 34 µM, the turnover number (kcat) was determined as 0.29 ± 0.04 s⁻¹ and the catalytic efficiency (kcat/Km) turned out to be 2200 M⁻¹ s⁻¹.

B1: PriB_Ssvi (Streptomyces sviceus ATCC 29083) (protein)
chain: MPSKLSRLELLPAVDVRDGQAVRLVHGESGTETSYGSPLEAALSWQRAGAEWLHLVDLDAAFGTGDNRELVRQVTEAMDIKVELSGGIRDDASLAAALATGCTRVNLGTAALESPEWVAKVIAEHGDRIAVGLDVRGTTLKGRGWTSEGGDLYEALERLDKEGCARYVVTDIAKDGTLQGPNLELLRNVCAATDRPVVASGGVSSLDDLRAIAELVPLGVEGSIVGKALYAKAFTLEEALEAVAQ
B1: in series [3], the Km came out at 3.9 ± 0.89 µM, the kcat was determined as 0.69 ± 0.04 s⁻¹ and the kcat/Km was 180000 M⁻¹ s⁻¹. In series [4], the Michaelis-Menten constant (Km) is 24.5 ± 4.0 µM, the kcat was 1.6 ± 0.29 s⁻¹ and the kcat/Km amounted to 67000 M⁻¹ s⁻¹.

B2: TrpF-3_Sipo (Streptomyces ipomoeae 91-03) (protein)
chain: MSVSNSNDSLFIKICGLRTERDVDTAVEAGADAVGFVFSASPRQIDADTAARLCDRVPEHVLTVGVFRDEPLRDVRSFATDSGIRAVQLHGPEDRAYYDDLAKGDWTLIRAAAFGDTVPRCGEFGEDMLLIDAPVPGSGIAWDWSSKPLAGSGERWILAGGLSPENVRDAVAATQPWGVDVSSGVELSRGVKDPALITEFVKAVRGGC
On to B2, for which, in series [5], the Michaelis constant (Km) came out at 23.0 ± 1.3 µM, the kcat stood at 4.3 ± 0.35 s⁻¹ and the kcat/Km was 190000 M⁻¹ s⁻¹.

B3: PriA_Msme (Mycolicibacterium smegmatis MC2 155) (protein)
chain: MATGATEAAGAGKRGLILLPAVDVVNGQAVRLVQGKAGSETDYGSAIEAAEAWQRDGAEWIHLVDLDAAFGRGSNRELLAEVVGKLDVAVELSGGIRDDESLRAALDTGCARVNIGTAALENPQWCARAIAEHGDRVAVGLDAQTDGAGGFRLRGRGWETDGGDLWEVLDRLDSEGCSRYVVTDVSKDGTLTGPNLDLLAAVAGRTDAPVIASGGVSSLDDLRAIATLTGVGVEGAIVGKALYAGRFTLPQALSAVSG
Consider B3, for which, in [6], the Km came out at 7.9 ± 2.4 µM, the kcat stood at 3.1 ± 0.43 s⁻¹ and the kcat/Km was determined as 390000 M⁻¹ s⁻¹. Also, in series [7], the Km turned out to be 2.6 ± 0.5 µM, the catalytic constant (kcat) amounted to 0.85 ± 0.04 s⁻¹ and the catalytic efficiency (kcat/Km) came to 330000 M⁻¹ s⁻¹.

B4: TrpF-3_Jden (Jonesia denitrificans DSM 20603) (protein)
chain: MYIKVCGLTDPHAIDAAQAAHVDAIGFVHAPTSPRHLTPPHISTLTATVDCTIDTVLVVATTPIADALALAESTGVSVLQLHGQYSDDDVAYAAARFPRVWRATSLSASPNLTVGAYGEELLLLDAPQAGSGHTWDFAALAHRRPTGRWLLAGGLTPDNVADAITTTSPWGVDVSSGVESAPGVKDPAKIAAFVQAARGVSCPR
B4: in [8], the Michaelis constant (Km) was found to be 16.8 ± 3.3 µM, the kcat came out at 27 ± 1.6 s⁻¹ and the kcat/Km is 1.6e+06 M⁻¹ s⁻¹.

B5: TrpF-3_Ssvi (Streptomyces sviceus ATCC 29083) (protein)
chain: MTLFVKICGLRTEQDVDTAVEAGADAIGFVFSDSPRRIDPAAAARLAARIPESVLTVGVFRREPLEYVRSVAAESGIGAVQLHGPEDRAYYDELSGGGWTLIRAAAFGDRVPRCGELGEDMLLLDAPVPGSGIAWDWSRKQVAGAGEKWLLAGGLTPENVREAVDVTRPWGVDVSSGVEASRGVKNPALITAFVEAARAGAVTSG
For B5, in [4], the Km stood at 9.4 ± 0.47 µM, the turnover number (kcat) was found to be 0.82 ± 0.08 s⁻¹ and the kcat/Km is 88000 M⁻¹ s⁻¹.

B6: PriB_SspC (Streptomyces sp. C) (protein)
chain: MPNTLELLPAVDVRDGQAVRLVHGVSGSETSYGSPLEAALAWQASGAEWLHLVDLDAAFGTGDNRALVADITRAMDIKVELSGGIRDDATLAAALATGCTRVNLGTAALETPEWAAKAIAEHGDRIAIGLDVRGTTLKGRGWTSEGGDLYETLARLDSEGCARYVVTDIGKDGTLTGPNLELLKNVCAATDRPVVASGGVSSLDDLRALSELVPLGVEGAIVGKALYAKAFTLEEALEAVRA
Take B6: in [9], the Km amounted to 11.4 ± 3.4 µM, the kcat was found to be 2.53 ± 0.74 s⁻¹ and the catalytic efficiency (kcat/Km) was determined as 220000 M⁻¹ s⁻¹. Besides, in [10], the Km was 149.9 ± 29 µM, the kcat worked out at 1.4 ± 0.12 s⁻¹ and the kcat/Km worked out at 9000 M⁻¹ s⁻¹.

B7: PriB_Sipo (Streptomyces ipomoeae 91-03) (protein)
chain: MAKLELLPAVDVRDGQAVRLVHGESGTETSYGSPLEAALAWQRAGAEWLHLVDLDAAFGTGDNRDLVAEVTRAMDIKVELSGGIRDDASLAKALATGCTRVNLGTAALETPEWVAKVIAEHGDKIAVGLDVKGTTLRGRGWTRDGGDLYETLERLDKEGCARYVVTDIAKDGTLQGPNLELLRNVCAATDRPVVASGGVSSLDDLRAIAELVPLGVEGAIVGKALYAKAFTLEEALEATS
With B7, in [5], the Km stood at 60.8 ± 1.1 µM, the catalytic constant (kcat) turned out to be 8.25 ± 0.4 s⁻¹ and the kcat/Km is 140000 M⁻¹ s⁻¹. Moreover, in [11], the Michaelis constant (Km) is 3.8 ± 0.2 µM, the turnover number (kcat) came to 0.82 ± 0.02 s⁻¹ and the kcat/Km stood at 210000 M⁻¹ s⁻¹.

B8: PriA_Sglo (Streptomyces globisporus) (protein)
chain: MPKLELLPAVDVRDGQAVRLVHGESGSETSYGSPLEAALAWQSAGAEWLHLVDLDAAFGTGDNRALIAEVAGAMDIKVELSGGIRDDASLEAALATGCRRVNLGTAALETPEWVAKVIAEHGDKIAVGLDVRGTTLRGRGWTRDGGDLYETLARLDAEGCARYVVTDIAKDGTLEGPNLGLLRDVCAVTDRPVVASGGVSSLDDLRAISLLVPEGVEGAIVGKALYAKAFTLEEALKAVAA
For B8, in series [12], the Km was 11 ± 1.0 µM, the kcat stood at 3.8 ± 0.2 s⁻¹ and the kcat/Km turned out to be 340000 M⁻¹ s⁻¹. In [13], the Michaelis constant (Km) amounted to 4.2 ± 0.8 µM, the kcat worked out at 0.74 ± 0.03 s⁻¹ and the kcat/Km amounted to 180000 M⁻¹ s⁻¹.

The record behind these values is article PMC6886522.
